In patent US20250195629A1, “SITE-SPECIFIC BRAIN THERAPEUTICS” (William Marsh Rice University, priority 2023, published 2025):

B1: AADC-IKVAV: aromatic-L-amino-acid decarboxylase (AADC) protein fused with short peptide IKVAV (SEQ ID NO: 23); CDS SEQ ID NO: 21 (protein)
chain: MRGSHHHHHHGMASMTGGQQMGRDLYDDDDKDPMNASEFRRRGKEMVDYMANYMEGIEGRQVYPDVEPGYLRPLIPAAAPQEPDTFEDIINDVEKIIMPGVTHWHSPYFFAYFPTASSYPAMLADMLCGAIGCIGFSWAASPACTELETVMMDWLGKMLELPKAFLNEKAGEGGGVIQGSASEATLVALLAARTKVIHRLQAASPELTQAAIMEKLVAYSSDQAHSSVERAGLIGGVKLKAIPSDGNFAMRASALQEALERDKAAGLIPFFMVATLGTTTCCSFDNLLEVGPICNKEDIWLHVDAAYAGSAFICPEFRHLLNGVEFADSFNFNPHKWLLVNFDCSAMWVKKRTDLTGAFRLDPTYLKHSHQDSGLITDYRHWQIPLGRRFRSLKMWFVFRMYGVKGLQAYIRKHVQLSHEFESLVRQDPRFEICVEVILGLVCFRLKGSNKVNEALLQRINSAKKIHLVPCHLRDKFVLRFAICSRTVESAHVQRAWEHIKELAADVLRAEREGGSGSSGGSGGSGGSGIKVAV
modifications: misc_feature 1..1602 Synthetic: AADC-IKVAV

Experiments:
c-Fos+ cells in the CPu = experiment: c-Fos+ cell count at the CPu after behavior test; type: in vivo, mouse
Excerpt: To quantify the c-Fos-positive cells related to FIG. 11, the stained coronal sections were initially imaged using a 4× objective in DAPI (nuclei, not shown) and far-red (c-Fos, shown in purple) channels. Within the left striatum region, one or more specific 3×3 binned square areas were selected corresponding to the highest observed AADC fluorescence in the adjacent AADC-stained section. Subsequently, images of these areas were captured using a 40× objective. Corresponding contralateral areas in the right striatum were also captured.
In FIG. 7, we applied the following brightness (white) thresholds for the corresponding channels: 6045 (DAPI, nuclei, not shown), 15,000 (Cy3, D1R), 16,000 (green, D2R), and 6045 (far-red, c-Fos), with a gamma value of 1. In FIG. 11, we applied a Brightness (White) threshold of 6045 for both DAPI (nuclei, not shown) and far-red (c-Fos) channels, with a Gamma value of 1. The images were then overlayed, and the c-Fos+ cells were manually counted. Similarly, the GFAP+ cells were manually counted, as shown in FIG. 15c and FIG. 17, by applying a Brightness (White) threshold of 5686 and a Gamma value of 1 for both the DAPI (nuclei) and far-red (GFAP, purple) channels.
To address potential bias and validate our counting approach, all c-Fos staining sites from mice in FIG. 11 were independently counted by 4 scorers (A. M., Z. H., C. H. and R. J.). C. […]

brain tissue = experiment: Safety analysis, hematoxylin staining of brain sections; type: in vivo, mouse; conditions: RAID approach, FUS+AADC-IKVAV+L-DOPA, behavior study
Method: Additionally, the brain sections stained for GFAP were imaged using a 4× objective in DAPI (nuclei) and far-red (GFAP) channels. Three square areas were then selected in both the left and right striatum respectively, each with 3×3 binning, for imaging with a 40× objective to quantify GFAP+ cells. Safety analysis—To investigate potential lesions resulting from the use of FUS-BBBO in the RAID protocol, hematoxylin staining was performed (n=11 mice for FUS alone+L-DOPA group and n=14 mice for FUS+AADC-IKVAV (SEQ ID NO: 23)+L-DOPA group) on the adjacent sections of each representative section used for c-Fos staining, which was associated with behavior analysis as shown in FIG. 11. Hematoxylin staining was conducted according to the following steps: […] (5) This was followed by a 3-minute wash in H2O; (6) A 20-second soak in Bluing Reagent (H&E Staining Kit, Abcam ab245880) was carried out; (7) Another 3-minute wash in H2O followed; […]

[1] = Mouse body weight analysis; type: in vivo; conditions: day 0 vs 2 days after injection, RLuc8.6 100 mg/kg, AADC-IKVAV 250 mg/kg
Method: To assess the potential impact of the RAID approach on the body weight of the mice involved in behavior analysis (n=11 mice for the FUS alone+L-DOPA group and n=14 mice for the FUS+AADC-IKVAV (SEQ ID NO: 23)+L-DOPA group), their body weight was recorded on a daily basis before and after FUS-BBBO administration. […] The body weight of the additional group of mice was also recorded in a similar manner; however, unintentionally four mice were omitted from weighing on the day following the AADC-IKVAV (SEQ ID NO: 23) injection. Similarly, the mouse body weight was recorded before and after the intravenous injection of unmodified or engineered RLuc8.6, which is related to the study presented in FIG. 5.

| Molecule | change in ipsilateral c-Fos-positive cells vs contralateral site (c-Fos+ cells in the CPu; untreated mice or FUS alone, L-DOPA 2 mg/kg i.p.) | increase in ipsilateral c-Fos-positive cells vs contralateral site (c-Fos+ cells in the CPu; RAID-treated mice, FUS+AADC-IKVAV+L-DOPA, counted by A. M. and Z. H.) | tissue damage or bleeding by hematoxylin staining (brain tissue) | Weight loss ([1]; FUS-BBBO + protein i.v., RLuc8.6-IKVAV 104 mg/kg) | Weight loss ([1]; protein i.v. alone without FUS) |
| --- | --- | --- | --- | --- | --- |
| N[C@@H](Cc1ccc(O)c(O)c1)C(=O)O [L-DOPA, reference compound] | no significant changes |  |  |  |  |
| B1 |  | 5.7(±1.8) fold | didn't cause observable tissue damage or bleeding | 10.3±0.5% | 13.8±0.8% |
